Data reported in patent US20230293571A1, “POLYNUCLEOTIDE FOR CANCER TREATMENT, ENCODING 5'-NUCLEOTIDASE MODIFIED PROTEIN” (priority 2020, published 2023).

Target: recombinant CD47 protein (Homo sapiens, UniProt Q08722)
Assay: SPR on CM5 chip conjugated with CD47
Assay type: binding
Conditions: CD47 250 RU
Method: Specifically, the recombinant CD47 protein was conjugated to the surface of the CM5 chip by a target SPR reaction of 250 RU through an EDC-NHS reaction to be used, and for HBS-P, the sensogram obtained through a process of association for 3 minutes and dissociation for 10 minutes at a flow rate of 30 μL/minutes was analyzed with the BiaEvaluation software using a 1:1 binding model and global fitting.

recombinant CD47 protein, sequence (Q08722 19-323): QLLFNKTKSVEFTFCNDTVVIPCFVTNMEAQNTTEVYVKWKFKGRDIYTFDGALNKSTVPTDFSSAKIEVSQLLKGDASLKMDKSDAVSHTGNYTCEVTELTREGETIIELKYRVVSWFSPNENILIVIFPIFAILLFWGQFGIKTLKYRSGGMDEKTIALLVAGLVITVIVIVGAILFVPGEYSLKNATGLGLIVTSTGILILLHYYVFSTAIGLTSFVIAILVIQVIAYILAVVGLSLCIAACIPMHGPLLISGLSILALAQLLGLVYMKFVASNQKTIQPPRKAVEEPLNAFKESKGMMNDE

Sirpα: pure Sirpα (SEQ ID NO: 25), water-soluble domain of the original CD47 ligand
Kd: 290 nM

B1: SV4-DSPE (conjugate)
chain: MEEELQIIQPDLSVSVAAGESAILHCTITSLFPVGPIQWFRGAGPARVLIYNQRQGPFPRVTTVSETTKRENMDFSISISNITPADAGTYYCIKFRKGSPDTEFLSGAGTELSVRAKPS
kd: 0.000256 s⁻¹
